Results as given in US20260055188A1 (SHENGHE CHINA BIOPHARMACEUTICAL, published 2026).

Legend:
[1] = target: T1, Human-TNFR2-His (manufacturer: SINO, CAT: 10417-H08H) (human, UniProt P20333 23-257); test: ELISA: Human-TNFR2-His coated (0.3 µg/mL), antibody titrated, goat anti-human IgG Fc detection, OD450 (Example 2)
T1 construct: Bought protein; also called human TNFR2 protein; TNFR2 protein; not shown: His tag
T1 sequence (looked up): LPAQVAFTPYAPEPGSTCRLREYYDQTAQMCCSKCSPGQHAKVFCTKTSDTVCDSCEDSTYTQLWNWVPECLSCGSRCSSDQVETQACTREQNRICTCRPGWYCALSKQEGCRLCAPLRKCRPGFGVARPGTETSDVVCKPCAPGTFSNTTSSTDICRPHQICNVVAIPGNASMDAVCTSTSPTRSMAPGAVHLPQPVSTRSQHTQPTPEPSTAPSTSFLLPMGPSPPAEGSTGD
Method: Human-TNFR2-His (manufacturer: SINO, CAT: 10417-H08H, LOT: LC15NO0412) was diluted to 0.3 μg/mL with a coating solution (1×PBS, pH7.4), and coated into a 96-well ELISA plate at 100 μL/well overnight at 4° C. The coating solution was poured off. Each well was washed with 1×PBST at 300 μL, washed 4 times with a plate washer, and patted dry on a flat paper. It was blocked with 3% skim milk powder at 300 μL/well, and incubated at 37° C. for 1 h. The blocking solution was poured off, washed 4 times with a plate washer, and patted dry on a flat paper. Negative control and positive control were set up. […] The positive control and antibody were diluted to 10 μg/mL with 3% skim milk powder as the starting concentration, and then diluted by 3-fold gradient (11 gradients in total). A blank well was set up and only the diluent was added. It was incubated at 37° C. for 1 h at 100 μL/well. The liquid in the well was discarded, washed 4 times with a plate washer, and patted dry on a flat paper. Goat anti-human IgG Fc was diluted with 3% skim milk powder at 1:20000, and incubated at 37° C. for 1 h at 100 μL/well. It was washed 6 times with a plate washer, and patted dry on a flat paper. TMB color developing solution was added at 100 μL/well, and wrapped with aluminum foil. Color development was performed at 37° C. in the dark for 8 min. Termination solution 1M HCl was added to terminate the color development reaction at 100 μL/well. Readings were taken at 450 nm on an ELISA reader.

[2] = target: T1, Human-TNFR2-His (manufacturer: SINO, …); test: flow cytometry, bridging: CHOK1-18.2 cells (human Claudin18.2) + 150 nM antibody + human TNFR2-His, anti-His FITC detection
Method: Human TNFR2 protein (SINO, CAT: 10417-H08H) was sequentially added into 96-well plate with 100 μL/well, and after mixing, the 96-well plate was incubated at 4° C. for 1 h. Pre-cooled dilution was added and washed once, centrifuged (3000 rpm, 3 min), and the supernatant was discarded, and the cells were harvested. Fluorescent secondary antibody Anti-6X-his tag antibody (FITC) (manufacturer: abcam, Cat. No.: ab1206, Lot No.: GR3420599-3) was taken and diluted at the used concentration of 1:500. 100 μL of dilution was added to the blank control group, and 100 μL of fluorescent secondary antibody dilution was added to the rest of the sample groups respectively. After incubation for 0.5 h at room temperature and 4° C. protected from light, PBS was added to wash and centrifuged (3000 rpm, 3 min) twice. After discarding the supernatant, 80 μL of the dilution was added and resuspended.

[3] = target: T2, Human-B7H3 His (manufacturer: Acro, CAT: TB73-H52E2) (human, UniProt Q5ZPR3-2 29-245); test: ELISA: Human-B7H3 His coated (0.3 µg/mL), antibody titrated, goat anti-human IgG Fc detection, OD450 (Example 3)
T2 construct: also called human B7H3 protein; B7H3 protein; not shown: His tag
T2 sequence (looked up): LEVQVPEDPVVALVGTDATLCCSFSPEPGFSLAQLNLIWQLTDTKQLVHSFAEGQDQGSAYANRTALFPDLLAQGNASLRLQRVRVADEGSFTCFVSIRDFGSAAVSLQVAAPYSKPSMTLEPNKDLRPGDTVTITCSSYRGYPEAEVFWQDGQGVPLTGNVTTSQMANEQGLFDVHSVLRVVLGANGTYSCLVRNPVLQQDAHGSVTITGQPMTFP
Method: Human-B7H3 His (manufacturer: Acro, CAT: TB73-H52E2, LOT: 2052-21AXF1-YS) was diluted to 0.3 μg/mL with a coating solution (1×PBS, pH7.4), and coated into a 96-well ELISA plate at 100 μL/well overnight at 4° C. The coating solution was poured off. Each well was washed with 1×PBST at 300 μL, washed 4 times with a plate washer, and patted dry on a flat paper. It was blocked with 3% skim milk powder at 300 μL/well, and incubated at 37° C. for 1 h. The blocking solution was poured off, washed 4 times with a plate washer, and patted dry on a flat paper. Negative control and positive control were set up. […] The variable region of the antibody sequence of the positive control consists of SEQ ID NO: 1 and SEQ ID NO: 5, with the constant region of human IgG1 added (SEQ ID NO: 85 and SEQ ID NO: 86). The positive control and antibody were diluted to 10 μg/mL with 3% skim milk powder as the starting concentration, and then diluted by 3-fold gradient (11 gradients in total). A blank well was set up and only the diluent was added. It was incubated at 37° C. for 1 h at 100 μL/well. The liquid in the well was discarded, washed 4 times with a plate washer, and patted dry on a flat paper. Goat anti-human IgG Fc was diluted with 3% skim milk powder at 1:20000, and incubated at 37° C. for 1 h at 100 μL/well. It was washed 6 times with a plate washer, and patted dry on a flat paper. TMB color developing solution was added at 100 μL/well, and wrapped with aluminum foil. Color development was performed at 37° C. in the dark for 8 min. Termination solution 1M HCl was added to terminate the color development reaction at 100 μL/well. Readings were taken at 450 nm on an ELISA reader.

[4] = target: T2, Human-B7H3 His (manufacturer: Acro, …); test: BLI, antibody on AHC sensor, 100 nM His-tagged protein (Acro TB73-H52E2) in solution
[5] = target: T1, Human-TNFR2-His (manufacturer: SINO, …); test: BLI, antibody on AHC sensor, 100 nM human-TNFR2-His in solution
Method: The AHC sensor was soaked in 0.02% PBST (0.02% Tween 20, pH 7.4, 1×PBS) as a buffer for 600 s to remove the sucrose covering the sensor surface. The AHC sensor was equilibrated with 0.02% PBST (0.02% Tween 20, pH 7.4, 1×PBS) as a buffer for 60 s, the antibody in the sample plate was solidified for 300 s, and the secondary equilibration buffer was used for 180 s. 100 nM human-TNFR2-His (manufacturer: SINO, CAT: 10417-H08H, LOT: LC12SE2902) protein was bound to the antibody for 300 s and then dissociated for 600 s. After dissociation, 10 mM glycine (pH 2.0) was used as a regeneration buffer for 30 s. The sensor was regenerated with 10 mM glycine (pH 2.0).

B1: TB-E (bispecific antibody, human IgG1, kappa)
light: DIVMTQSPATLSVTPGDRVSLSCRASQSISDYLHWYQQKSHESPRLLIKYASQSISGIPSRFSGSGSGSDFTLSINSVEPEDVGVYYCQNGHSFPLTFGAGTKLELKRTVAAPSVFIFPPSDEQLKSGTASVVCLLNNFYPREAKVQWKVDNALQSGNSQESVTEQDSKDSTYSLSSTLTLSKADYEKHKVYACEVTHQGLSSPVTKSFNRGECGGGGSGGGGSEVQLVQSGAEVKKPGATVKISCKVSGYSITDYLLHWVQQAPGKCLEWMGWIDPEDAKTKYGQKFQSRVTITADTSTDTAYMELSSLRSEDTAVYYCAANSGTGTMDAWGQGTLVTVSSGGGGSGGGGSGGGGSDIVMTQSPATLSVSPGERATLSCKASQNVGSNVDWYQQKPGQSPRVLIYKASIRYTGIPARFSGSGSGTEFTLTISILQSEDFAVYFCMQSKSYPITFGCGTKLEIK
heavy: not shown
notes: also called antibody TB-E
Q: Does B1 bind [1]?
A: Result: binds

B2: TC-F2 (bispecific antibody, human IgG1, kappa)
light: EVQLVQSGAEVKKPGATVKISCKVSGYSITDYLLHWVQQAPGKCLEWMGWIDPEDAKTKYGQKFQSRVTITADTSTDTAYMELSSLRSEDTAVYYCAANSGTGTMDAWGQGTLVTVSSGGGGSGGGGSGGGGSDIVMTQSPATLSVSPGERATLSCKASQNVGSNVDWYQQKPGQSPRVLIYKASIRYTGIPARFSGSGSGTEFTLTISILQSEDFAVYFCMQSKSYPITFGCGTKLEIKGGGGSGGGGSGGGGSEIVMTQSPPTLSLSPGERVTLSCKSSQSLLNSGNQKNYLTWYQQKPGQAPRLLIYWASTRESSIPARFSGSGSGTDFTLTISSLQPEDFAVYYCQNNYIYPLTFGGGTKLELKRTVAAPSVFIFPPSDEQLKSGTASVVCLLNNFYPREAKVQWKVDNALQSGNSQESVTEQDSKDSTYSLSSTLTLSKADYEKHKVYACEVTHQGLSSPVTKSFNRGEC
heavy: not shown
Q: Which “E1 Mean FITC-A” value [2] does the source give for B2 here?
A: The value was 248000.

B3: TC-A2 (bispecific antibody, human IgG1, kappa)
light: EIVMTQSPPTLSLSPGERVTLSCKSSQSLLNSGNQKNYLTWYQQKPGQAPRLLIYWASTRESSIPARFSGSGSGTDFTLTISSLQPEDFAVYYCQNNYIYPLTFGGGTKLELKRTVAAPSVFIFPPSDEQLKSGTASVVCLLNNFYPREAKVQWKVDNALQSGNSQESVTEQDSKDSTYSLSSTLTLSKADYEKHKVYACEVTHQGLSSPVTKSFNRGEC
heavy: not shown
Q: B3 was tested. Which “E1 Mean FITC-A” value [2] did it give?
A: The value was 217000.

B4: TC-B2 (bispecific antibody, human IgG1, kappa)
light: B3 light
heavy: not shown
Q: For B4, which “E1 Mean FITC-A” value [2] is on record?
A: Its value is 139000.

B5: TB-A2 (bispecific antibody, human IgG4 S228P, kappa)
light: DIVMTQSPATLSVTPGDRVSLSCRASQSISDYLHWYQQKSHESPRLLIKYASQSISGIPSRFSGSGSGSDFTLSINSVEPEDVGVYYCQNGHSFPLTFGAGTKLELKRTVAAPSVFIFPPSDEQLKSGTASVVCLLNNFYPREAKVQWKVDNALQSGNSQESVTEQDSKDSTYSLSSTLTLSKADYEKHKVYACEVTHQGLSSPVTKSFNRGEC
heavy: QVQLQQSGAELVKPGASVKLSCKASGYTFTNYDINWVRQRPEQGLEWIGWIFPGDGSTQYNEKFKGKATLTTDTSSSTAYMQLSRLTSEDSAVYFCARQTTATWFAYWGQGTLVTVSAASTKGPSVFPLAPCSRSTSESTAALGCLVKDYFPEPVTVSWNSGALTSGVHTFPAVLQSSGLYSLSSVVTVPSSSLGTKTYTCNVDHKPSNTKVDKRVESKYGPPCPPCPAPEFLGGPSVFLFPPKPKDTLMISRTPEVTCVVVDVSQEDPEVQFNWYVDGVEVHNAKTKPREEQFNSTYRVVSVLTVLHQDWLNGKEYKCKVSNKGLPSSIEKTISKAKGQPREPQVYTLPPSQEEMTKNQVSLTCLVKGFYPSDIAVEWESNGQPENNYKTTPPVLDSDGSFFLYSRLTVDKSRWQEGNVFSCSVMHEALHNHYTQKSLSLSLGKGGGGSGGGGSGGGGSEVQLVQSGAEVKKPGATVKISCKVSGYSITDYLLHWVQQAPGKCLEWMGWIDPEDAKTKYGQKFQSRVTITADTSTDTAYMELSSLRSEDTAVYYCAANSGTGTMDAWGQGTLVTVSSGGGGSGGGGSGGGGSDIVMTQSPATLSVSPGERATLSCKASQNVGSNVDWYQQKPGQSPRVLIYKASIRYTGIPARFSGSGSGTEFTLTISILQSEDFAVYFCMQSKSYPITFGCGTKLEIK
notes: also called antibody TB-A2
Q: What does the source list for B5?
A: binding result [1]: binds; EC50 (read off the curve) [3]: ~0.7 nM

B6: TB-B (bispecific antibody, human IgG1, kappa)
light: B5 light
heavy: not shown
notes: also called antibody TB-B
Q: Does B6 bind [1]?
A: Result: binds

Q: What about the “EC50 (read off the curve)” value [3] of the same binder?
A: Its value is about 0.2 µg/mL.

B7: TB-D1 (bispecific antibody, human IgG1, kappa)
light: B5 light
heavy: not shown
notes: also called antibody TB-D1
Q: How did the Kd [4] turn out when B7 was run?
A: Its Kd is 9.45 nM.

Q: What about the koff [4] of the same binder?
A: The koff was 0.000311 s⁻¹.

Q: And the kon [4]?
A: The kon was 33000 M⁻¹ s⁻¹.

Q: What about the Kd [5] of the same binder?
A: The Kd was 1.35 nM.

Q: What about the koff [5] of the same binder?
A: The koff was 0.000531 s⁻¹.

Q: What about the kon [5] of the same binder?
A: The kon was 394000 M⁻¹ s⁻¹.

Q: And the “EC50 (read off the curve)” value [3]?
A: The value was about 0.2 µg/mL.

B8: TB-A1 (bispecific antibody, human IgG1, kappa)
light: B5 light
heavy: not shown
notes: also called antibody TB-A1
Q: Which results are given for B8?
A: Kd [4]: 22 nM; koff [4]: 0.000894 s⁻¹; kon [4]: 40700 M⁻¹ s⁻¹; Kd [5]: 0.234 nM; koff [5]: 5.22e-05 s⁻¹; kon [5]: 223000 M⁻¹ s⁻¹

B9: TC-E2 (bispecific antibody, human IgG1, kappa)
light: EIVMTQSPPTLSLSPGERVTLSCKSSQSLLNSGNQKNYLTWYQQKPGQAPRLLIYWASTRESSIPARFSGSGSGTDFTLTISSLQPEDFAVYYCQNNYIYPLTFGGGTKLELKRTVAAPSVFIFPPSDEQLKSGTASVVCLLNNFYPREAKVQWKVDNALQSGNSQESVTEQDSKDSTYSLSSTLTLSKADYEKHKVYACEVTHQGLSSPVTKSFNRGECGGGGSGGGGSEVQLVQSGAEVKKPGATVKISCKVSGYSITDYLLHWVQQAPGKCLEWMGWIDPEDAKTKYGQKFQSRVTITADTSTDTAYMELSSLRSEDTAVYYCAANSGTGTMDAWGQGTLVTVSSGGGGSGGGGSGGGGSDIVMTQSPATLSVSPGERATLSCKASQNVGSNVDWYQQKPGQSPRVLIYKASIRYTGIPARFSGSGSGTEFTLTISILQSEDFAVYFCMQSKSYPITFGCGTKLEIK
heavy: not shown
Q: With B9 as the binder, how does the “E1 Mean FITC-A” value [2] read?
A: Its value is 260000.
